Assay results published in the supplement of paper PMC10567573.

B1: CCDC89 (parent)
chain: LNAELEEKMMQEAEKLKAQGEYSR
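Note: lentivirally expressed fusions sorted by FACS into six bins by GFP to DsRed ratio, PSI derived from sequencing read proportions per bin multiplied by bin number.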

Variants of: B1
Experiment: protein stability index of a GFP-peptide fusion (GPS, HEK-293T) (PSI 1-6); higher = more stable
Details: c terminus: a fixed tail appended
Work on LNAELERKMMQEAEKLKAQGEYSR [E7R] yielded a protein stability index of 3.8.
LNAELEIKMMQEAEKLKAQGEYSR [E7I] gave a protein stability index of 4.64.
In the case of LNAELEDKMMQEAEKLKAQGEYSR [E7D], the protein stability index is reported as 4.81.
Work on LNAELECKMMQEAEKLKAQGEYSR [E7C] yielded a protein stability index of 5.
LNAELETKMMQEAEKLKAQGEYSR [E7T] gave a protein stability index of 4.74.
In the case of LNAELESKMMQEAEKLKAQGEYSR [E7S], the protein stability index is reported as 4.01.
LNAELEVKMMQEAEKLKAQGEYSR [E7V] showed a protein stability index of 5.
LNAELEMKMMQEAEKLKAQGEYSR [E7M] gave a protein stability index of 4.54.
With LNAELEYKMMQEAEKLKAQGEYSR [E7Y] the protein stability index was 4.61.
Work on LNAELEQKMMQEAEKLKAQGEYSR [E7Q] yielded a protein stability index of 4.18.
LNAELEFKMMQEAEKLKAQGEYSR [E7F] showed a protein stability index of 4.97.
LNAELEAKMMQEAEKLKAQGEYSR [E7A] showed a protein stability index of 4.87.
Variant LNAELEGKMMQEAEKLKAQGEYSR [E7G] has a protein stability index of 4.35.
For LNAELEHKMMQEAEKLKAQGEYSR [E7H], the protein stability index was 4.5.
LNLELEEKMMQEAEKLKAQGEYSR [A3L] showed a protein stability index of 5.02.
Work on LNCELEEKMMQEAEKLKAQGEYSR [A3C] yielded a protein stability index of 4.69.
Variant LNIELEEKMMQEAEKLKAQGEYSR [A3I] has a protein stability index of 4.9.
Variant LNWELEEKMMQEAEKLKAQGEYSR [A3W] has a protein stability index of 4.58.
LNQELEEKMMQEAEKLKAQGEYSR [A3Q] showed a protein stability index of 4.97.
Work on LNGELEEKMMQEAEKLKAQGEYSR [A3G] yielded a protein stability index of 3.57.
In the case of LNSELEEKMMQEAEKLKAQGEYSR [A3S], the protein stability index is reported as 4.96.
In the case of LNDELEEKMMQEAEKLKAQGEYSR [A3D], the protein stability index is reported as 5.08.
LNTELEEKMMQEAEKLKAQGEYSR [A3T] showed a protein stability index of 5.63.
LNFELEEKMMQEAEKLKAQGEYSR [A3F] showed a protein stability index of 4.57.
Variant LNHELEEKMMQEAEKLKAQGEYSR [A3H] has a protein stability index of 4.71.
LNNELEEKMMQEAEKLKAQGEYSR [A3N] gave a protein stability index of 3.89.
LNPELEEKMMQEAEKLKAQGEYSR [A3P] showed a protein stability index of 4.76.
With LNKELEEKMMQEAEKLKAQGEYSR [A3K] the protein stability index was 5.28.
LNRELEEKMMQEAEKLKAQGEYSR [A3R] gave a protein stability index of 4.94.
LNVELEEKMMQEAEKLKAQGEYSR [A3V] showed a protein stability index of 5.13.
LNEELEEKMMQEAEKLKAQGEYSR [A3E] showed a protein stability index of 4.45.
Variant LNYELEEKMMQEAEKLKAQGEYSR [A3Y] has a protein stability index of 4.2.
LNAEKEEKMMQEAEKLKAQGEYSR [L5K] gave a protein stability index of 4.53.
Work on LNAEWEEKMMQEAEKLKAQGEYSR [L5W] yielded a protein stability index of 4.71.
LNAEDEEKMMQEAEKLKAQGEYSR [L5D] gave a protein stability index of 4.71.
For LNAEREEKMMQEAEKLKAQGEYSR [L5R], the protein stability index was 4.7.
For LNAENEEKMMQEAEKLKAQGEYSR [L5N], the protein stability index was 5.44.
For LNAEPEEKMMQEAEKLKAQGEYSR [L5P], the protein stability index was 5.58.
Variant LNAEVEEKMMQEAEKLKAQGEYSR [L5V] has a protein stability index of 5.09.
LNAEFEEKMMQEAEKLKAQGEYSR [L5F] showed a protein stability index of 4.73.
In the case of LNAEHEEKMMQEAEKLKAQGEYSR [L5H], the protein stability index is reported as 5.19.
In the case of LNAEYEEKMMQEAEKLKAQGEYSR [L5Y], the protein stability index is reported as 4.33.
LNAEMEEKMMQEAEKLKAQGEYSR [L5M] showed a protein stability index of 5.21.
With LNAEAEEKMMQEAEKLKAQGEYSR [L5A] the protein stability index was 4.86.
Variant LNAEQEEKMMQEAEKLKAQGEYSR [L5Q] has a protein stability index of 5.55.
With LNAEEEEKMMQEAEKLKAQGEYSR [L5E] the protein stability index was 5.46.
Variant LNAETEEKMMQEAEKLKAQGEYSR [L5T] has a protein stability index of 5.47.
Work on LNAEIEEKMMQEAEKLKAQGEYSR [L5I] yielded a protein stability index of 4.88.
LNAESEEKMMQEAEKLKAQGEYSR [L5S] showed a protein stability index of 5.38.
In the case of LNAELEEKAMQEAEKLKAQGEYSR [M9A], the protein stability index is reported as 5.2.
With LNAELEEKCMQEAEKLKAQGEYSR [M9C] the protein stability index was 5.52.
LNAELEEKDMQEAEKLKAQGEYSR [M9D] gave a protein stability index of 4.89.
Variant INAELEEKMMQEAEKLKAQGEYSR [L1I] has a protein stability index of 4.69.
Work on VNAELEEKMMQEAEKLKAQGEYSR [L1V] yielded a protein stability index of 4.41.
In the case of YNAELEEKMMQEAEKLKAQGEYSR [L1Y], the protein stability index is reported as 4.95.
Variant HNAELEEKMMQEAEKLKAQGEYSR [L1H] has a protein stability index of 4.89.
Work on PNAELEEKMMQEAEKLKAQGEYSR [L1P] yielded a protein stability index of 5.4.
Work on WNAELEEKMMQEAEKLKAQGEYSR [L1W] yielded a protein stability index of 4.8.
Variant SNAELEEKMMQEAEKLKAQGEYSR [L1S] has a protein stability index of 5.21.
RNAELEEKMMQEAEKLKAQGEYSR [L1R] showed a protein stability index of 5.17.
MNAELEEKMMQEAEKLKAQGEYSR [L1M] gave a protein stability index of 5.2.
Work on ANAELEEKMMQEAEKLKAQGEYSR [L1A] yielded a protein stability index of 5.74.
In the case of KNAELEEKMMQEAEKLKAQGEYSR [L1K], the protein stability index is reported as 5.3.
Variant QNAELEEKMMQEAEKLKAQGEYSR [L1Q] has a protein stability index of 5.11.
For NNAELEEKMMQEAEKLKAQGEYSR [L1N], the protein stability index was 4.97.
FNAELEEKMMQEAEKLKAQGEYSR [L1F] showed a protein stability index of 5.18.
With DNAELEEKMMQEAEKLKAQGEYSR [L1D] the protein stability index was 5.54.
TNAELEEKMMQEAEKLKAQGEYSR [L1T] showed a protein stability index of 4.98.
For CNAELEEKMMQEAEKLKAQGEYSR [L1C], the protein stability index was 5.32.
ENAELEEKMMQEAEKLKAQGEYSR [L1E] gave a protein stability index of 4.91.
Work on LNASLEEKMMQEAEKLKAQGEYSR [E4S] yielded a protein stability index of 5.16.
Variant LNAHLEEKMMQEAEKLKAQGEYSR [E4H] has a protein stability index of 4.4.
With LNAQLEEKMMQEAEKLKAQGEYSR [E4Q] the protein stability index was 4.76.
Work on LNATLEEKMMQEAEKLKAQGEYSR [E4T] yielded a protein stability index of 4.3.
LNAFLEEKMMQEAEKLKAQGEYSR [E4F] gave a protein stability index of 4.47.
Variant LNARLEEKMMQEAEKLKAQGEYSR [E4R] has a protein stability index of 4.57.
With LNAKLEEKMMQEAEKLKAQGEYSR [E4K] the protein stability index was 3.96.
Work on LNAPLEEKMMQEAEKLKAQGEYSR [E4P] yielded a protein stability index of 3.94.
Variant LNAYLEEKMMQEAEKLKAQGEYSR [E4Y] has a protein stability index of 3.74.
With LNALLEEKMMQEAEKLKAQGEYSR [E4L] the protein stability index was 4.56.
In the case of LNAWLEEKMMQEAEKLKAQGEYSR [E4W], the protein stability index is reported as 3.12.
Work on LNADLEEKMMQEAEKLKAQGEYSR [E4D] yielded a protein stability index of 4.94.
Variant LNACLEEKMMQEAEKLKAQGEYSR [E4C] has a protein stability index of 3.98.
For LNAVLEEKMMQEAEKLKAQGEYSR [E4V], the protein stability index was 3.95.
With LNAILEEKMMQEAEKLKAQGEYSR [E4I] the protein stability index was 4.6.
For LNAMLEEKMMQEAEKLKAQGEYSR [E4M], the protein stability index was 3.91.
Variant LNAELEEIMMQEAEKLKAQGEYSR [K8I] has a protein stability index of 4.25.
For LNAELEELMMQEAEKLKAQGEYSR [K8L], the protein stability index was 5.19.
For LNAELEEHMMQEAEKLKAQGEYSR [K8H], the protein stability index was 5.36.
LNAELEECMMQEAEKLKAQGEYSR [K8C] gave a protein stability index of 5.15.
Work on LNAELEERMMQEAEKLKAQGEYSR [K8R] yielded a protein stability index of 4.98.
Work on LNAELEEMMMQEAEKLKAQGEYSR [K8M] yielded a protein stability index of 4.92.
With LNAELEEYMMQEAEKLKAQGEYSR [K8Y] the protein stability index was 4.46.
LNAELEEPMMQEAEKLKAQGEYSR [K8P] showed a protein stability index of 5.12.
